According to ChEMBL document CHEMBL1145290, “Beta-glucuronidase-cleavable prodrugs of O6-benzylguanine and O6-benzyl-2'-deoxyguanosine” (J Med Chem, 2005):

Legend:
[1] = substrate: O=C(Nc1nc(OCc2ccccc2)c2ncn([C@H]3C[C@H](O)[C@@H](CO)O3)c2n1)OCc1ccc(O[C@@H]2O[C@H](C(=O)O)[C@@H](O)[C@H](O)[C@H]2O)c([N+](=O)[O-])c1; experiment: (§1) KM value using bovine liver beta-glucuronidase obtained at 370 C in MOPS buffer of pH 7.0; settings: Bos taurus
[2] = substrate: O=C(Nc1nc(OCc2ccccc2)c2[nH]cnc2n1)OCc1ccc(O[C@@H]2OC(C(=O)O)[C@@H](O)C(O)[C@@H]2O)c([N+](=O)[O-])c1; experiment: as §1; settings: Bos taurus
[3] = substrate: O=C(Nc1nc(OCc2ccccc2)c2ncn([C@H]3C[C@H](O)[C@@H](CO)O3)c2n1)OCc1ccc(O[C@@H]2O[C@H](C(=O)O)[C@@H](O)[C@H](O)[C@H]2O)c([N+](=O)[O-])c1; experiment: (§2) Vmax value using bovine liver beta-glucuronidase obtained at 370 C in MOPS buffer of pH 7.0; settings: Bos taurus
[4] = substrate: O=C(Nc1nc(OCc2ccccc2)c2[nH]cnc2n1)OCc1ccc(O[C@@H]2OC(C(=O)O)[C@@H](O)C(O)[C@@H]2O)c([N+](=O)[O-])c1; experiment: as §2; settings: Bos taurus
[5] = substrate: O=C(Nc1nc(OCc2ccccc2)c2ncn([C@H]3C[C@H](O)[C@@H](CO)O3)c2n1)OCc1ccc(O[C@@H]2O[C@H](C(=O)O)[C@@H](O)[C@H](O)[C@H]2O)c([N+](=O)[O-])c1; experiment: (§3) Vmax value using Escherichia coli beta-glucuronidase obtained at 370 C in MOPS buffer of pH 7.0
[6] = substrate: O=C(Nc1nc(OCc2ccccc2)c2[nH]cnc2n1)OCc1ccc(O[C@@H]2OC(C(=O)O)[C@@H](O)C(O)[C@@H]2O)c([N+](=O)[O-])c1; experiment: as §3
[7] = substrate: O=C(Nc1nc(OCc2ccccc2)c2ncn([C@H]3C[C@H](O)[C@@H](CO)O3)c2n1)OCc1ccc(O[C@@H]2O[C@H](C(=O)O)[C@@H](O)[C@H](O)[C@H]2O)c([N+](=O)[O-])c1; experiment: (§4) KM value using Escherichia coli beta-glucuronidase obtained at 370 C in MOPS buffer of pH 7.0
[8] = substrate: O=C(Nc1nc(OCc2ccccc2)c2[nH]cnc2n1)OCc1ccc(O[C@@H]2OC(C(=O)O)[C@@H](O)C(O)[C@@H]2O)c([N+](=O)[O-])c1; experiment: as §4

B1: Beta-glucuronidase (Bos taurus), A3KMY8 (protein)
chain: MLRGSAGAWAVLGPLLWGCGLSLLQGGMLYPRESRSRERKELDGLWSFRADFSDNRRQGFEQQWYRAPLRESGPTLDMPVPSSFNDVGQDGQLRSFVGWVWYEREITLPQRWTEDLGTRVVLRIGSAHYYAIVWVNGVHVLEHEGGHLPFEADISKLVQSGPLSSCRITIAINNTLSPHTLPPGTILYKTDPSMYPKGYFVQNTKFDFFNYAGLHRSVLLYTTPTTYIDDITVTTDMDQDIGLVNYQIIVQGSDHFQVDVSLLDEEGKVMAKGAGAEGQLQVPSAHLWWPYLMHEHPAYLYSLEVKLTAQTAVGPVSDFYTLPVGIRTVAVTKSQFLINGKPFYFRGVNKHEDADIRGKGFDWPLLVKDFNLLRWLGANAFRTSHYPYSEEVLQLCDRYGIVVIDESPGVGIVLVESFSNVSLQHHLEVMEEMIRRDKNHPAVVMWSLANEPASFLKPAGYYFKTLIAHTKALDPSRPVTFVTNTNYEADLGAPYVDIICVNSYYSWYHDYGHMEVIQLQLATQFENWYKAYQKPMIQSEYGADAIEGFHEDPPLMFSEEYQKGLLQQYHVVLDQKRKEYVVGELIWNFADFMTNQSPVRMIGNRKGIFTRQRQPKSAAFLLRERYWKLANETRYQRSAVTSQCVGSGLFTV
Km [1]: 360 µM
Km [2]: 240 µM
Vmax [3]: 0.39 µmol/mg/min
Vmax [4]: 0.27 µmol/mg/min

B2: Beta-glucuronidase (Escherichia coli (strain K12)), P05804 (protein)
chain: MLRPVETPTREIKKLDGLWAFSLDRENCGIDQRWWESALQESRAIAVPGSFNDQFADADIRNYAGNVWYQREVFIPKGWAGQRIVLRFDAVTHYGKVWVNNQEVMEHQGGYTPFEADVTPYVIAGKSVRITVCVNNELNWQTIPPGMVITDENGKKKQSYFHDFFNYAGIHRSVMLYTTPNTWVDDITVVTHVAQDCNHASVDWQVVANGDVSVELRDADQQVVATGQGTSGTLQVVNPHLWQPGEGYLYELCVTAKSQTECDIYPLRVGIRSVAVKGEQFLINHKPFYFTGFGRHEDADLRGKGFDNVLMVHDHALMDWIGANSYRTSHYPYAEEMLDWADEHGIVVIDETAAVGFNLSLGIGFEAGNKPKELYSEEAVNGETQQAHLQAIKELIARDKNHPSVVMWSIANEPDTRPQGAREYFAPLAEATRKLDPTRPITCVNVMFCDAHTDTISDLFDVLCLNRYYGWYVQSGDLETAEKVLEKELLAWQEKLHQPIIITEYGVDTLAGLHSMYTDMWSEEYQCAWLDMYHRVFDRVSAVVGEQVWNFADFATSQGILRVGGNKKGIFTRDRKPKSAAFLLQKRWTGMNFGEKPQQGGKQ
Vmax [5]: 11 µmol/mg/min
Vmax [6]: 7.8 µmol/mg/min
Km [7]: 41 µM
Km [8]: 17 µM
